Substrate in the data set: C[C@H](O)C(=O)O
The experiment in a line: cells, lysate or membranes named. Particulars: 1.4 mM menaquinone, 5 μM FAD, phosphatidylethanolamine vesicles, NBT. Type of data set: biochemical, Staphylococcus aureus.

As usually defined, the Km is the concentration of substrate that gives half-maximal velocity.

B1: Lqo (Mqo2, SACOL2623) (Staphylococcus aureus subsp. aureus COL) (protein)
chain: MAKSNSKDIVLIGAGVLSTTFGSMLKEIEPDWNIHVYERLDRPAIESSNERNNAGTGHAALCELNYTVLQPDGSIDIEKAKVINEEFEISKQFWGHLVKSGSIENPREFINPLPHISYVRGKNNVKFLKDRYEAMKAFPMFDNIEYTEDIEVMKKWIPLMMKGREDNPGIMAASKIDEGTDVNFGELTRKMAKSIEAHPNATVQFNHEVVDFEQLSNGQWEVTVKNRLTGEKFKQVTDYVFIGAGGGAIPLLQKTGIPESKHLGGFPISGQFLACTNPQVIEQHDAKVYGKEPPGTPPMTVPHLDTRYIDGQRTLLFGPFANVGPKFLKNGSNLDLFKSVKTYNITTLLAAAVKNLPLIKYSFDQVIMTKEGCMNHLRTFYPEARNEDWQLYTAGKRVQVIKDTPEHGKGFIQFGTEVVNSQDHTVIALLGESPGASTSVSVALEVLERNFPEYKTEWAPKIKKMIPSYGESLIEDEKLMRKIRKQTSKDLELGYYEN
As for B1, the Km turned out to be 330 µM.
